Assay [1] deals with ICAM-1 A115N/SV (printed A155N/SV at paragraph 410) (human) (UniProt P05362). Briefly: COS cells on LFA-1 coated plastic.
Assay [2] addresses Intercellular Adhesion Molecule-1 (ICAM-1), wild type, on the cell surface (human) (UniProt P05362). Briefly: COS cells on LFA-1 coated plastic.
The target of assay [3] is ICAM-1 E254DE/KEK (human, UniProt P05362). Briefly: COS cells on LFA-1 coated plastic.
Assay [4] addresses ICAM-1 R13G/EA (human, UniProt P05362). The assay can be described thus: COS cells on LFA-1 coated plastic.
The target in assay [5] is ICAM-1 R13/E (human, UniProt P05362). The assay can be described thus: COS cells on LFA-1 coated plastic.
Assay [6] concerns the target ICAM-1 G15/SA (human, UniProt P05362). Briefly: COS cells on LFA-1 coated plastic.
Assay [7] concerns the target ICAM-1 E34/A (human, UniProt P05362). The assay can be described thus: COS cells on LFA-1 coated plastic.
Assay [8] addresses ICAM-1 K40/A (human, UniProt P05362). The assay can be described thus: COS cells on LFA-1 coated plastic.
The target of assay [9] is ICAM-1 Q58EDS/AKDI (human, UniProt P05362). The assay can be described thus: COS cells on LFA-1 coated plastic.
The target of assay [10] is ICAM-1 D60S/KL (human, UniProt P05362). The assay can be described thus: COS cells on LFA-1 coated plastic.
The target in assay [11] is ICAM-1 D60/K (human, UniProt P05362). The assay can be described thus: COS cells on LFA-1 coated plastic.
Assay [12] concerns the target ICAM-1 D60/Q (human, UniProt P05362). The assay can be described thus: COS cells on LFA-1 coated plastic.
Assay [13] has as its target ICAM-1 Q62PM/API (human, UniProt P05362). The assay can be described thus: COS cells on LFA-1 coated plastic.
For assay [14], the target named is ICAM-1 S74/A (human, UniProt P05362). The assay can be described thus: COS cells on LFA-1 coated plastic.
Assay [15] addresses ICAM-1 E90/K (human, UniProt P05362). Briefly: COS cells on LFA-1 coated plastic.
The target of assay [16] is ICAM-1 L91/A (human, UniProt P05362). Briefly: COS cells on LFA-1 coated plastic.
Assay [17] deals with ICAM-1 E111GGA/KAGS (human, UniProt P05362). Briefly: COS cells on LFA-1 coated plastic.
The target in assay [18] is T1, ICAM-1 N118/Q (human, UniProt P05362). The assay can be described thus: COS cells on LFA-1 coated plastic.
Assay [19] concerns the target ICAM-1 R125/E (human, UniProt P05362). The assay can be described thus: COS cells on LFA-1 coated plastic.
For assay [20], the target named is T2, ICAM-1 V136GE/GVK (human, UniProt P05362). Briefly: COS cells on LFA-1 coated plastic.
Assay [21] addresses ICAM-1 R149RD/EEG (human, UniProt P05362). The assay can be described thus: COS cells on LFA-1 coated plastic.
Assay [22] has as its target ICAM-1 N156/E (human, UniProt P05362). The assay can be described thus: COS cells on LFA-1 coated plastic.
Assay [23] deals with ICAM-1 R166PQ/EPA (human, UniProt P05362). The assay can be described thus: COS cells on LFA-1 coated plastic.
The target of assay [24] is T3, ICAM-1 D203TQ/TAD (human, UniProt P05362). The assay can be described thus: COS cells on LFA-1 coated plastic.
Assay [25] concerns the target ICAM-1 Q1/E (human, UniProt P05362). The assay can be described thus: 35S-HRV14 on COS cells.
The target in assay [26] is ICAM-1 S24/A (human, UniProt P05362). The assay can be described thus: 35S-HRV14 on COS cells.
The target in assay [27] is ICAM-1 K39KE/ERQ (human, UniProt P05362). The assay can be described thus: 35S-HRV14 on COS cells.
The target in assay [28] is ICAM-1 Q58/H (human, UniProt P05362). Briefly: 35S-HRV14 on COS cells.
Assay [29] deals with ICAM-1 E87/K (human, UniProt P05362). The assay can be described thus: 35S-HRV14 on COS cells.
For assay [30], the target named is T1, ICAM-1 N118/Q. The assay can be described thus: 35S-HRV14 on COS cells.
The target of assay [31] is T2, ICAM-1 V136GE/GVK. The assay can be described thus: 35S-HRV14 on COS cells.
Assay [32] deals with T3, ICAM-1 D203TQ/TAD. Briefly: 35S-HRV14 on COS cells.

Take “purified LFA-1, bound to plastic (from UniProt P20701) (receptor)”: the LFA-1 Binding % (% of wild type) was found to be 0 in assay [1]; 122 in assay [3]; 2 in assay [4]; 1 in assay [5]; 120 in assay [6]; 0 in [7]. For the same molecule, the LFA-1 Binding % (% of wild type) in assay [8] turned out to be 124; in [9], 3; in [10] it was 1; in assay [11] it was 14; in assay [12], 18; in [13], 104. For the same molecule, the LFA-1 Binding % (% of wild type) stood at 70 in assay [14]; 34 in assay [15]; 87 in assay [16]; 103 in [17]; 54 in assay [18]; 81 in [19]. For the same molecule, the LFA-1 Binding % (% of wild type) in assay [20] is 92; in assay [21] it was 81; in assay [22], 60; in assay [23] it was 75; in assay [24], 91. In [2], this molecule displayed a % of COS cells bound (mean) of 33%.

B1: human rhinovirus 14 (HRV14) (other)
chain: GAQVSTQKSGSHENQNILTNGSNQTFTVINYYKDAASTSSAGQSLSMDPSKFTEPVKDLMLKGAPALNSPNVEACGYSDRVQQITLGNSTITTQEAANAVVCYAEWPEYLPDVDASDVNKTSKPDTSVCRFYTLDSKTWTTGSKGWCWKLPDALKDMGVFGQNMFFHSLGRSGYTVHVQCNATKFHSGCLLVVVIPEHQLASHEGGNVSVKYTFTHPGERGIDLSSANEVGGPVKDVIYNMNGTLLGNLLIFPHQFINLRTNNTATIVIPYINSVPIDSMTRHNNVSLMVIPIAPLTVPTGATPSLPITVTIAPMCTEFSGIRSKSIVPQGLPTTTLPGSGQFLTTDDRQSPSALPNYEPTPRIHIPGKVHNLLEIIQVDTLIPMNNTHTKDEVNSYLIPLNANRQNEQVFGTNLFIGDGVFKTTLLGEIVQYYTHWSGSLRFSLMYTGPALSSAKLILAYTPPGARGPQDRREAMLGTHVVWDIGLQSTIVMTIPWTSGVQFRYTDPDTYTSAGFLSCWYQTSLILPPETTGQVYLLSFISACPDFKLRLMKDTQTISQTVALTEGLGDELEEVIVEKTKQTVASISSGPKHTQKVPILTANETGATMPVLPSDSIETRTTYMHFNGSETDVECFLGRAACVHVTEIQNKDATGIDNHREAKLFNDWKINLSSLVQLRKKLELFTYVRFDSEYTILATASQPDSANYSSNLVVQAMYVPPGAPNPKEWDDYTWQSASNPSVFFKVGDTSRFSVPYVGLASAYNCFYDGYSHDDAETQYGITVLNHMGSMAFRIVNEHDEHKTLVKIRVYHRAKHVEAWIPRAPRALPYTSIGRTNYPKNTEPVIKKRKGDIKSY
modifications: [35S]-Met labeled
B1: the “HRV Binding %” value was 149 % of wild type in [25]; 99 % of wild type in [26]; 61 % of wild type in assay [27]; 1 % of wild type in [28]; 27 % of wild type in [29]; 110 % of wild type in assay [30]. Further, the “HRV Binding %” value in [31] is 117 % of wild type; in [32] it was 111 % of wild type.

Source of the values: patent US20090035321A1, “Intercellular adhesion molecules and their binding ligands” (Boehringer Ingelheim Pharmaceuticals, Inc., published 2009).
